Experimental data published in patent publication US11078246B2, “Peptides binding to Bfl-1” (Dana-Farber Cancer Institute, Inc., priority 2015, dated 2021).
Substitutions are numbered along the chain they refer to. Starred links: 1 amine or outer side, 2 acyl side, 3 side chain; linkers in the order of their positions; H or OH if unused. Positions of bridges follow the written chain, without caps; N, C: chain ends. Non-standard residues stand in square brackets, D forms with d. Residues, ends and D or L forms follow the SMILES beside them. No end group written: not given here. *: point of attachment. Nip(3R) = O=C([C@@H]1CCCN([*:1])C1)[*:2]; S5 = C=CCCC[C@](C)(N)C(=O)O; code J = not defined here; Acryloyl = C=CC(=O)*

Tests used:
A375P melanoma cells = test: Cell viability (CellTiter-Glo); type: cell-based, human; conditions: 40 μM, over time
Experimental: Cell Viability, LDH Release, and Caspase-3/7 Activation Assays: Cancer cells were cultured using their standard culture media containing 10% FBS and penicillin/streptomycin (A375P: DMEM; SK-MEL-2, SK-MEL-28 and MCF-7: EMEM: A549, H929: RPMI). […] Cell viability and caspase 3/7 activation was measured using CellTiter-Glo and Caspase-Glo 3/7 chemiluminescence reagents (Promega), respectively, and luminescence detected by a microplate reader (Spectramax M5, Molecular Devices). LDH release was quantified after 30 min peptide incubation by plate centrifugation at 1500 rpm for 5 min at 4° C., transfer of 100 μL cell culture media to a clear plate (Corning), incubation with 100 μL LDH reagent (Roche) for 30 min while shaking, and measurement of absorbance at 490 nm on a Spectramax M5 microplate reader. Mitochondrial Cytochrme c Release and Biotinylation Assays: A375P cells were plated in 6-well Corning plates (3×10^5 cells/well) and cultured as above. […] Briefly, pelleted cells were resuspended at 1×10^7 cells/mL in permeabilization buffer (20 mM HEPES/KOH pH 7.5, 250 mM sucrose, 50 mM KCl, 2.5 mM MgCl2) supplemented with 0.025% digitonin and protease inhibitors, followed by incubation on ice for 10 min and centrifugation at 13,000 g.

[1] = test system: mouse embryonic fibroblasts (MEFs); test: Cellular uptake by ImageXpress Micro epifluorescence microscopy; type: cell-based; conditions: FITC-labeled peptides, 4 h; data not shown
A375P cells = test: as above; type: cell-based, human; conditions: FITC-labeled peptides, 4 h; data not shown
Experimental: Confocal Microscopy: A375P cells were plated in chambered coverglass (1.5×10^4 cells/well) and cultured as above. […] Cells were washed, stained with MitoTracker Red (Thermo), Hoescht 33342, and imaged live. Confocal images were collected with a Yokogawa CSU-X1 spinning disk confocal (Andor Technology) mounted on a Nikon Ti-E inverted microscope (Nikon Instruments). Images were acquired using a 100×1.4 NA Plan Apo objective lens with an Orca ER CCD camera (Hamamatsu Photonics) and 488 nm laser. Acquisition parameters, shutters, filter positions and focus were controlled by Andor iQ software (Andor Technology). […] Data were collected for five sites per well at 20× magnification, with each treatment performed in triplicate, and then analyzed and quantified using MetaXpress software. […] A custom module in MetaXpress was applied to incrementally recede the CMDR image mask from the cellular border, further restricting the analyzed FITC signal to internalized peptide. The measurement of Total Internalized Fluorescence Intensity (TIFI) represents the level of absolute fluorescence detected per cell, per peptide construct. Maximum and minimum thresholding was utilized to exclude FITC and Cy5 outliers that were much larger and brighter than average, and total intensity and average intensity per cell thresholds were set such that vehicle-treated cells scored negative by the analysis.

BCL-XLΔC = molecular target: T1, BCL-XLΔC (Homo sapiens, UniProt Q07817); test: Covalent conjugation assay of warhead-bearing SAHBs; type: binding
T1 construct: MCL-1ΔNΔC (aa 170-327) and BCL-XLΔC (aa 1-212) constructs were cloned into pGEX-4T-1; GST (N, cleaved yes); made in house; host or cells: Escherichia coli BL21(DE3)

BFL-1ΔC [2] = test: as above; type: binding, human
Experimental: For warhead-bearing SAHBs, His-BFL-1ΔC C4S/C19S protein was pretreated with 10 mM DTT in 50 mM Tris pH 8.0, 100 mM NaCl for 30 min at RT (final volume, 9.5 μL), and then combined with a 10:1 molar ratio of NOXA SAHBA or BIM SAHBA peptides bearing warheads 1-8 (final volume, 10 μL) for an additional 2 h incubation at RT. Processing for gel electrophoresis and Coomassie staining was performed as above.

BFL-1ΔC [3] = molecular target: T2, BFL-1ΔC (Homo sapiens, UniProt Q16548); test: Liposomal release assay with SAHBA-3/BFL-1ΔC conjugates; type: biochemical; conditions: BFL-1ΔC covalently conjugated to the peptide, 1.5 μM
T2 construct: cDNA encoding BFL-1ΔC (aa 1-153) was cloned into the pET19b expression vector; made in house; host or cells: Escherichia coli BL21(DE3) LOBSTR
T2 sequence (Q16548 1-153): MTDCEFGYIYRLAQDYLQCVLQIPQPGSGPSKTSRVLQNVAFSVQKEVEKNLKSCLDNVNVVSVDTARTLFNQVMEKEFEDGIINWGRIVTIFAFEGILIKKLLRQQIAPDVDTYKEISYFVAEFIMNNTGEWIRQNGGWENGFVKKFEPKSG
Experimental: Streptavidin Pull-down: Recombinant His-BFL-1ΔC, BCL-XLΔC (tagless) and GST-MCL-1ΔNΔC (1 μM each) were combined and reduced with 3 mM DTT in PBS for 30 min at RT, and then incubated with 1 μM biotinylated SAHBA, SAHBA-3 or vehicle for 4 h at RT. The mixtures were then combined with PBS-washed high-capacity SA agarose (Thermo Fisher Pierce) and incubated with rotation for 2 h at RT. The beads were centrifuged at 3000 rpm, washed twice with NP-40 lysis buffer (1% NP40, 50 mM Tris pH 8.0, 100 mM NaCl, 2.5 mM MgCl2), once with PBS, and then bound protein eluted by boiling in 10% SDS containing 10 mg/mL biotin. […]
Large unilamellar vesicles (LUVs) with encapsulated ANTS and DPX were generated and purified as described (Leshchiner et al., 2013; Lovell et al., 2008). The indicated combinations of BAX (400 nM), tBID (40 nM), and BFL-1ΔC or SAHBA-3/BFL-1ΔC conjugates (1.5 μM), were added to liposomes (5 μL) in 384 well plates (final volume, 30 μL), and released fluorophore was measured over 120 min using an M1000 Infinite plate reader (Tecan) with excitation and emission wavelengths of 355 nm and 520 nm, respectively. […] Percent ANTS/DPX release was calculated as [(F−F0)/(F100−F0)]×100, where F0 is baseline fluorescence at time 0, F is the fluorescence recorded for each time point, and F100 is the maximum amount of ANTS/DPX release based on liposomal treatment with 1% Triton X-100.

HA-BFL-1ΔC C4S/C19S = molecular target: T3, HA-BFL-1ΔC C4S/C19S (Homo sapiens, UniProt Q16548, C19S/C4S); test: Crosslinking in lysates of transfected 293T cells; type: binding; conditions: 293T lysate
T3 construct: cDNA encoding BFL-1ΔC (aa 1-153) was cloned into the pET19b expression vector; expressed in transfected cells; host or cells: 293T
T3 sequence (Q16548 1-153 C4S/C19S): T2 sequence (Q16548 1-153) with C4S, C19S
Experimental: 293T cells were maintained in DMEM containing 10% FBS and penicillin/streptomycin, and transfections performed with 2 μg pCMV plasmid containing HA-BFL-1ΔC C4S/C19S using X-tremeGENE 9 (Roche). For lysate experiments, cells were trypsinized 24 hours post-transfection, washed with PBS, and lysed by incubation with 1% CHAPS lysis buffer (150 mM NaCl, 50 mM Tris pH 7.4, 100 mM DTT). Protein concentration of the soluble fraction was measured using a BCA kit according to manufacturer's instructions (Thermo Scientific). […] Samples were then boiled in LDS buffer and subjected to western analysis using 1:1000 dilutions of HA (Sigma-Aldrich. #12CA5) and biotin (Abcam, #53494) antibodies. To evaluate the capacity of biotinylated SAHBs to compete with tBID for interactions with BFL-1 and MCL-1, 293T cells were transfected with either HA-BFL-1ΔC C4S/C19S or FLAG-MCL-1 in the p3XFLAG-CMV-10 vector (Sigma) as above. After 24 h, cells were trypsinized, washed with PBS, lysed in 1% CHAPS buffer, and the supernatant collected for protein concentration determination by BCA kit. […] The mixtures were then subjected to HA or FLAG (Sigma-Aldrich, F7425) immunoprecipitation, followed by western analysis using 1:1000 dilutions of HA, FLAG, biotin, and BID (Santa Cruz sc-11423) antibodies. […] Cells were harvested and lysed as above, and incubated overnight with anti-HA agarose beads (Pierce). […]

His-BFL-1ΔC = molecular target: T4, His-BFL-1ΔC (Homo sapiens, UniProt Q16548); test: Streptavidin pull-down from anti-apoptotic protein mixture; type: binding; conditions: 1:1:1:1 mixture, 1 μM each, biotinylated SAHB; relative to SAHB without warhead
T4 construct: cDNA encoding BFL-1ΔC (aa 1-153) was cloned into the pET19b expression vector; made in house; host or cells: Escherichia coli BL21(DE3) LOBSTR
T4 sequence (Q16548 1-153): T2 sequence (Q16548 1-153)
Experimental: (§1) Streptavidin Pull-down: Recombinant His-BFL-1ΔC, BCL-XLΔC (tagless) and GST-MCL-1ΔNΔC (1 μM each) were combined and reduced with 3 mM DTT in PBS for 30 min at RT, and then incubated with 1 μM biotinylated SAHBA, SAHBA-3 or vehicle for 4 h at RT. The mixtures were then combined with PBS-washed high-capacity SA agarose (Thermo Fisher Pierce) and incubated with rotation for 2 h at RT. The beads were centrifuged at 3000 rpm, washed twice with NP-40 lysis buffer (1% NP40, 50 mM Tris pH 8.0, 100 mM NaCl, 2.5 mM MgCl2), once with PBS, and then bound protein eluted by boiling in 10% SDS containing 10 mg/mL biotin. Inputs (10%) and eluates were electrophoresed on a 12% Bis-Tris gel and then subjected to silver stain and imaging.

GST-MCL-1ΔNΔC = molecular target: T5, GST-MCL-1ΔNΔC (Homo sapiens, UniProt Q07820); test: as above; type: binding; conditions: 1:1:1:1 mixture, 1 μM each, biotinylated SAHB
T5 construct: MCL-1ΔNΔC (aa 170-327) and BCL-XLΔC (aa 1-212) constructs were cloned into pGEX-4T-1; made in house; host or cells: Escherichia coli BL21(DE3)
Experimental: as §1

MCL-1ΔNΔC = molecular target: T6, MCL-1ΔNΔC (Homo sapiens, UniProt Q07820); test: Covalent conjugation assay of warhead-bearing SAHBs; type: binding
T6 construct: MCL-1ΔNΔC (aa 170-327) and BCL-XLΔC (aa 1-212) constructs were cloned into pGEX-4T-1; GST (N, cleaved yes); made in house; host or cells: Escherichia coli BL21(DE3)
Experimental: Processing for gel electrophoresis and Coomassie staining was performed as above.

T1 sequence (Q07817 1-212, stated change not applied): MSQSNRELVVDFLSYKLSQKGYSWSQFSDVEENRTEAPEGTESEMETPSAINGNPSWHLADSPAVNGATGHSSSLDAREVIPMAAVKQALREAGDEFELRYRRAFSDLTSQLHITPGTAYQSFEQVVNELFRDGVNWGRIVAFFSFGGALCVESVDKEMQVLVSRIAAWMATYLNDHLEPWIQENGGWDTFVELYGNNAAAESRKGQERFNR
T5 sequence (Q07820 170-327, stated change not applied): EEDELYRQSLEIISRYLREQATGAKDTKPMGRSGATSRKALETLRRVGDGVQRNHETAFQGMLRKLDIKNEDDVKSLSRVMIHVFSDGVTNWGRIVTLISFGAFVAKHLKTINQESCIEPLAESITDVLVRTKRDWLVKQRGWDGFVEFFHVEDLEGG
T6 sequence (Q07820 170-327, stated change not applied): as above

Row | Compound | cytotoxicity compared to BIM SAHBA1 (A375P melanoma cells) | cellular uptake [1] | cellular uptake (A375P cells) | reactivity with BCL-XLΔC (BCL-XLΔC) | reactivity with BFL-1 constructs WT, C4S/C19S, C55S, C4S/C19S/C55S (BFL-1ΔC [2]) | BFL-1ΔC suppression of tBID-triggered BAX-mediated liposomal release (BFL-1ΔC [3]) | reactivity with other lysate proteins (biotin western) (HA-BFL-1ΔC C4S/C19S) | molecular weight shift of HA-BFL-1ΔC C4S/C19S (anti-HA western) (HA-BFL-1ΔC C4S/C19S; biotinylated peptide 10 μM, 2 h) | BFL-1ΔC engagement in SA pull-down (His-BFL-1ΔC) | MCL-1ΔNΔC engagement in SA pull-down (GST-MCL-1ΔNΔC) | reactivity with MCL-1ΔNΔC (MCL-1ΔNΔC)
1 | C=CC(=O)N1CCC[C@@H](C(=O)N[C@H](C(=O)N[C@@H](C)C(=O)N[C@@H](CCC(N)=O)C(=O)N[C@@H](CCC(=O)O)C(=O)N[C@@H](CC(C)C)C(=O)N[C@@H](CCCNC(=N)N)C(=O)N[C@@]2(C)CCCC=CCCC[C@@](C)(C(=O)N[C@@H](Cc3ccccc3)C(=O)N[C@@H](CC(N)=O)C(=O)N[C@@H](C)C(=O)N[C@@H](Cc3ccc(O)cc3)C(=O)N[C@@H](Cc3ccc(O)cc3)C(=O)N[C@@H](C)C(=O)N[C@@H](CCCNC(=N)N)C(=O)N[C@@H](CCCNC(=N)N)C(N)=O)NC(=O)[C@H](CC(=O)O)NC(=O)CNC(=O)[C@H]([C@@H](C)CC)NC2=O)[C@@H](C)CC)C1 [BIM SAHBA-3] (Acryloyl-[Nip(3R)]IAQELR[S5]IGD[S5]FNAYYARR-NH2; staple 8-12; N-terminus and C-terminus assumed) | significant enhancement in cytotoxicity over time | equivalent cellular uptake | equivalent cellular uptake | – | – | – | – | – | – | – | –
2 | NOXA SAHBA-3: NOXA SAHBA (aa 21-43) capped at L21 with D-nipecotic acid acrylamide warhead 3; JEVESATQLRXFGDXLNFRQKLL (SEQ ID NO:24) ([code J]EVESATQLR[S5]FGD[S5]LNFRQKLL; staple 11-15; reading uncertain) | – | – | – | did not react | exclusive reactivity with the WT and BFL-1 C4S/C19S constructs | the inhibitory function of BFL-1 was lost | little to no non-specific reactivity | prominent molecular weight shifts | notably more | relatively less | did not react
